According to US20220204610A1, “PROTEIN BINDERS FOR IRHOM2” (NEW YORK SOCIETY FOR THE RELIEF OF THE RUPTURED AND …, priority 2019, published 2022):

Test system: LPS-induced release of endogenous TNFα from human THP-1 macrophage cells
Assay: TNFα release (shedding) assay, functional screen of hybridoma supernatants
Type: cell-based
Details: supernatants of monoclonal 4H8 sub-clones; assay as in Example 5
From the text: After 14 days of culture, supernatants of hybridoma cells were collected and—instead of being selected for iRhom2 binding antibodies—were subjected to an ELISA-based functional screen for iRhom2 activity-neutralizing antibodies. Since the crucial role of iRhom2 in TACE-mediated release of tumor necrosis factor alpha (TNFα) from macrophages is very well established (McIlwein et al., 2012, Adrain et al., 2012, Siggs et al., 2012), the human TNF-alpha DuoSet ELISA (R&D Systems, USA) was employed to compare the lipopolysaccharide (LPS)-induced release of endogenous TNFα from human THP-1 macrophage cells in the presence and absence of all 5280 peptide immunization-derived hybridoma supernatants.
In brief, on day 1, Nunc black MaxiSorp® 96-well plates (Thermo Fisher Scientific, USA) were coated overnight with 100 μl per well of mouse anti-human TNFα capture antibody (provided as part of the DuoSet ELISA kit) at 4 μg/m1 TBS at 4° C. […] Using an infinite M1000 PRO (Tecan Group, Switzerland) microplate reader, the fluorescence of each well was collected at an excitation wavelength of 435 nm and an emission wavelength of 555 nm.
In brief, cells of the hybridoma population 4H8 were counted and the dilution factor to end up with an average of two cells per well of 96-well plates was calculated. […]

B1: 4H8-E3: Mouse IgM monoclonal antibody against the human iRhom2 juxtamembrane domain adjacent to TMD1; HC VD SEQ ID NO 33, LC VD SEQ ID NO 40 (antibody, V domains shown)
VH: EVQLQQSGPELVKPGASVKISCKASGYTFTDYYMNWVKQSHGKSLEWIGDINPNNGGTSYNQKFKGKATLTVDKSSNTAYMEFRSLTSEDSAVYYCARRGYYGVDYWGQGTTLTVSS
VL: NIVMTQSPKSMSMSVGERVTLNCKASENVGTYVSWYQQKPEQSPKLLIFGASNRYTGVPDRFIGSGFATDFTLTISSVQAEDLADYHCGQSYSYPYTFGGGTKLEIK
modifications: IgM constant regions; antibody sequence
inhibitory effect of sub-clone supernatants on LPS-induced release of TNFα from THP-1 cells: significantly interfere
